Test [1] concerns the target full-length human ACE2 mutant AAA/K353del over-expressed on hACE2-KO 293FT cells (human) (UniProt Q9BYF1).
The target of test [2] is full-length human ACE2 mutant AKA/K353del over-expressed on hACE2-KO 293FT cells (human) (UniProt Q9BYF1).
The target in test [3] is full-length human ACE2 mutant K353del over-expressed on hACE2-KO 293FT cells (human) (UniProt Q9BYF1).
In test [4] the target is full-length human ACE2 mutant AAA/K353del over-expressed on hACE2-KO 293FT cells (human) (UniProt Q9BYF1). The source holds these as a separate data set.
The target of test [5] is full-length human ACE2 mutant AKA/K353del over-expressed on hACE2-KO 293FT cells (human) (UniProt Q9BYF1). This is another data set of the same source.
For test [6] the target is unchanged. The source holds these as a separate data set.
Test [7] has as its target full-length human ACE2 mutant AAA/K353del over-expressed on hACE2-KO 293FT cells (human) (UniProt Q9BYF1). This is another data set of the same source.
The target of test [8] is full-length human ACE2 mutant AKA/K353del over-expressed on hACE2-KO 293FT cells (human) (UniProt Q9BYF1). The source holds these as a separate data set.
The target in test [9] is full-length human ACE2 mutant K353del over-expressed on hACE2-KO 293FT cells (human) (UniProt Q9BYF1). This is another data set of the same source.

Read-outs that look alike come from different tables or passages of the source.

This passage reports % cells stained positive and % of cells in the PE-positive (RBD-bound) gate results from patent US20230399641A1.

Consider “receptor binding domain (RBD) of B.1.1.7 SARS-CoV-2 spike (residues 319-541) (from UniProt P0DTC2 319-541) (ligand)”, for which the % cells stained positive in test [1] came to 1.6%; in [2], 1.6%; in [3], 1.4%.
With “receptor binding domain (RBD) of P.1 SARS-CoV-2 spike (residues 319-541) (from UniProt P0DTC2 319-541) (ligand)”, the % cells stained positive is 2.6% in test [1], 2.9% in [2] and 2.3% in test [3]. The % of cells in the PE-positive (RBD-bound) gate in test [4] came to 2.03%; in test [5], 1.82%.
As for “receptor binding domain (RBD) of wildtype SARS-CoV-2 spike (residues 319-541) (from UniProt P0DTC2 319-541) (ligand)”, the % of cells in the PE-positive (RBD-bound) gate in test [6] is 0.56%. Also, the % cells stained positive in [3] is 1.8%.
On to “receptor binding domain (RBD) of B.1.351 SARS-CoV-2 spike (residues 319-541) (from UniProt P0DTC2 319-541) (ligand)”, for which the % of cells in the PE-positive (RBD-bound) gate is 0.41% with No hACE2, 3.76% in test [7], 3.48% in [8] and 5.07% in [9]. The % cells stained positive in test [1] came to 3.5%; in test [2] it was 4%; in test [3], 3.5%.
